Entries after “also recorded” stand apart in the source; their conditions may differ. Read-outs that look alike come from different tables or passages of the source.

Results on two molecules are retold here after patent publication US20190091227A1, “METHODS FOR TREATING ER+, HER2-, HRG+ BREAST CANCER USING COMBINATION THERAPIES COMPRISING AN ANTI-ERBB3 ANTIBODY” (Merrimack Pharmaceuticals, Inc., priority 2016, published 2019).

In series [1] the test system is MCF7 cells. In words: Proliferation assay (Cell Titer-Glo), MCF7. Format: cell-based, human. As to the method: (§1) Cells were seeded in duplicate or triplicate at 1500 to 5000 cells per well in 96 well plates, Opaque-walled 96-well plates with clear bottom: 96-well, Black/Clear, Flat bottom with lid, FALCON, 353219 in reduced serum conditions at either 3% v/v FBS or 1% v/v FBS. The day after plating recombinant HRGβ1 was added to yield a final concentration of 10 nM. Control wells received media without HRGβ1. Plates were then incubated for the indicated time period of 4 to 6 days at 37° C. in a humid atmosphere with 95% air, 5% CO2.
(§2) The day after plating recombinant HRGβ1 was added to yield a final concentration of 10 nM. Control wells received media without HRGβ1. […] Where indicated CDK inhibitors were added at 10 μM and dilutions were performed to generate a dose-response curve with 2 controls wells per row. Plates were then incubated for the indicated time period of 4 to 6 days at 37° C. in a humid atmosphere with 95% air, 5% CO2. Growth inhibition was calculated as a function of the relative inhibition or proliferation of cells treated with either growth factor or antagonists to cells treated with diluent only, over the same time period.
(§3) The day after plating recombinant HRGβ1 was added to yield a final concentration of 10 nM. Control wells received media without HRGβ1. […] Where indicated CDK inhibitors were added at 10 μM and dilutions were performed to generate a dose-response curve with 2 controls wells per row. Plates were then incubated for the indicated time period of 4 to 6 days at 37° C. in a humid atmosphere with 95% air, 5% CO2.
(§4) To measure proliferation, Cell Titer-Glo (CTG) assays were performed as per manufacturer's instructions. Specifically, reagent-1 and reagent-2 were equilibrated to room temperature at which point reagent-1 was added to reagent-2 and mixed by vortex. Test plates containing cells were equilibrated to room temperature for 30 minutes at which point an equal volume of CTG reagent was added to each well of the test plate, typically 100 μl to give a final volume of 200 μl per well. Each plate was then sealed with a foil plate sealer and mixed on an orbital shaker for 10 minutes to lyse cells and release cellular ATP. Following mixing plates were incubated at room temperature for 15 minutes to stabilize the luminescent signal. Data was collected by measuring relative luminescence on a Synergy H1 plate reader using the luminescence program. Growth was calculated and expressed as a relative value to the unstimulated control wells on each individual plate. Growth inhibition was calculated as a function of the relative inhibition of cells treated with antagonists to the growth of cells treated with diluent only, over the same time period. Data was then plotted using GraphPad Prism software.

The subject of series [2] is CDK2. In words: CDK2 activation (phospho-Thr160) by Western blotting in MCF7 cells. Format: cell-based, human. To be noted: for CDK2 activation: MCF7, agent alone, 20-24 hours, HRG 10 nM, fulvestrant, palbociclib, abemaciclib 100 nM. As for the experimental part:
Cellular lysates were prepared by lysis in MPER lysis buffer with the addition of protease and phosphatase inhibitors for 30 minutes on ice. Cellular debris was removed by centrifugation at 10,000 rpm. Proteins were analyzed by Western blotting according to standard protocols.

The subject of series [3] is MCF7 cells. In words: Cell cycle / S-phase by EdU incorporation and flow cytometry in MCF7 cells. Format: cell-based, human. As to the method:
FIG. 13 is a representative FACS plot of the cell cycle distribution. The gate settings and percentage for cells in G0/G1, S and G2/M phases are indicated. DNA synthesis (S-phase) was determined by quantifying cells positive for both EdU incorporation and DNA content.

Series [4] concerns RB. In words: RB phosphorylation (S807/811, S780) by Western blotting in MCF7 cells. The class given is cell-based, human. To be noted: MCF7, 20-24 hours; HRG 10 nM, fulvestrant 50 nM, palbociclib, abemaciclib 40 nM. As for the experimental part: MCF7 cells were cultured as described above. […] Cellular lysates were prepared by lysis in MPER lysis buffer with the addition of protease and phosphatase inhibitors for 30 mins on ice. Cellular debris were removed by centrifugation at 10,000 rpm. Proteins were analyzed by Western blotting according to standard protocols. Protein loading was estimated by blotting with a β-actin antibody (β-Actin (13E5) Rabbit mAb #4970 Cell Signal) and RB activation was measured by detection of phosphorylation of RB (pRB) at pRb (S807/811): Cat #8516 pRb (S780): Cat #8180. Control antibodies as follows total AKT: Cat #9272 pAKT: Cat #4060.

The conditions of series [5]: cited from earlier work.
Series [6] has as its system metastatic ER-positive HER2-negative breast cancer. To be noted: letrozole plus palbociclib, combination arm; cited from earlier work.
Series [7] deals with T47D cells. In words: Proliferation assay (Cell Titer-Glo), T47D. Format: cell-based, human. As to the method: as §1, §2, §3, §4
Series [8] relates to HCC1428 cells. In words: Proliferation assay (Cell Titer-Glo), HCC1428. Particulars: HCC1428, stimulated with HRG for 6 days. Format: cell-based, human. As for the experimental part:
as §1
To measure proliferation, Cell Titer-Glo (CTG) assays were performed as per manufacturer's instructions. Specifically, reagent-1 and reagent-2 were equilibrated to room temperature at which point reagent-1 was added to reagent-2 and mixed by vortex. […] Data was collected by measuring relative luminescence on a Synergy H1 plate reader using the luminescence program. Growth was calculated and expressed as a relative value to the unstimulated control wells on each individual plate. Growth inhibition was calculated as a function of the relative inhibition of cells treated with antagonists to the growth of cells treated with diluent only, over the same time period. […]

Series [9] deals with ZR75-1 cells. In words: Proliferation assay (Cell Titer-Glo), ZR75-1. The class given is cell-based, human. To be noted: ZR75-1. As for the experimental part: as §2
The day after plating recombinant HRGβ1 was added to yield a final concentration of 10 nM. Control wells received media without HRGβ1. […]
To measure proliferation, Cell Titer-Glo (CTG) assays were performed as per manufacturer's instructions. […] Data was collected by measuring relative luminescence on a Synergy H1 plate reader using the luminescence program. Growth was calculated and expressed as a relative value to the unstimulated control wells on each individual plate. Growth inhibition was calculated as a function of the relative inhibition of cells treated with antagonists to the growth of cells treated with diluent only, over the same time period. […]

In series [10] the test system is MCF7 cells. In words: Proliferation assay (Cell Titer-Glo), MCF7. Format: cell-based, human. Particulars: MCF7, ligands 1 nM, fulvestrant 50 nM, palbociclib 40 nM, 6 days.

Take `CC(=O)c1c(C)c2cnc(Nc3ccc(N4CCNCC4)cn3)nc2n(C2CCCC2)c1=O` [palbociclib, 6-acetyl-8-cyclopentyl-5-methyl-2-{[5-(piperazin-1-yl)pyridin-2-yl]amino}pyrido[2,3-d]pyrimidin-7(8H)-one]: in [1] (MCF7, single agent CDK4/6 inhibitor over a dose range, 6 days), the proliferation result is “inhibited proliferation in a dose dependent manner”. For the same molecule, the CDK2 activation result in series [2] is reported as “inhibited CDK2 activation”. Moreover, the “S-phase cell cycle progression” value in series [3] (MCF7, single agents in the absence of HRG) was “efficacious at inhibiting S-phase cell cycle progression”. Moreover, the “RB phosphorylation / activation” value in series [4] is on record as “decrease RB activation”. Also, the solubility entry was “reduces significantly” in series [5] (above pH 4) and “high-solubility compound” in series [5] (at or below pH 4). The overall survival entry in [6] is recorded as “did not reach statistical significance”. Further, in [6], the “progression free survival (PFS)” value is recorded as “statistically significant increase”.

B1: HRG: heregulin, naturally occurring ligand of ErbB3; recombinant HRGβ1 from R&D Systems used in the assays (protein)
chain: SHLVKCAEKEKTFCVNGGECFMVKDLSNPSRYLCKCPNEFTGDRCQNYVMASFYKHLGIEFMEAE
For the molecule B1, the “effect of HRG on the CDK4/6 inhibitor-fulvestrant combination” value in [1] (MCF7) is recorded as “blocked”. The “effect of HRG on CDK4/6 inhibitor activity” value in series [1] (MCF7, HRG 10 nM, CDK4/6 inhibitor dose range) was “significantly repressed CDK4/6 inhibitor activity”; in [9], “inhibited the activity of CDK4/6 inhibitors”. The proliferation entry in [1] (MCF7, estradiol and HRG in combination) is listed as “increased proliferation”; in series [1] (MCF7, stimulated with HRG for 6 days), “induced proliferation; also recorded: significantly increased the proliferation”; in [7] (estradiol and HRG in combination) it was “increased proliferation”; in series [7] (stimulated with HRG for 6 days), “induced proliferation; also recorded: significantly increased the proliferation”; in series [8], “induced proliferation”. Moreover, the “inhibiting fulvestrant, palbociclib and combination activity, ligand comparison” value in [7] (ligands 1 nM, fulvestrant 50 nM, palbociclib 40 nM, 6 days) was “most effective ligand”; in series [10] it was “most effective ligand”. The “effect of HRG on inhibition of CDK2 activation by fulvestrant, palbociclib or abemaciclib” value in [2] (MCF7, HRG 10 nM) is recorded as “blocked this inhibitory activity”. The CDK2 activation result in [2] was “can activate CDK2”. Further, the “effect of HRG on cell cycle inhibitory activity of the palbociclib-fulvestrant combination” value in series [3] (MCF7) is recorded as “blocked the cell cycle inhibitory activity”. Moreover, the “proportion of cells in the S-phase” value in series [3] (MCF7, 24 hours, resting cells 15.8%) is listed as 55%. Moreover, in series [3] (MCF7, single agents), the “effect of HRG on cell cycle inhibitory activity of fulvestrant or palbociclib” value is reported as “significantly inhibited”. The “RB phosphorylation / activation” value in series [4] was “promoted the phosphorylation and activation of RB”.
